Experimental data from the DeepSol protein solubility set.

Assay: soluble on expression in E. coli; label from the status in PepcDB or PDB records

Soluble on expression in E. coli, not soluble:
EIAVIGAAGKTGAAVVAALEGLDDVRRVVHTARRAGDFAVDLETGAGLDKALSGCRGVYFIAPNVHPDEPALLRNTMRAAASVGVDHFVYHSVAWPYTPLMPHHVDKARCEDELRTFGGLRWTVLQPCAYAENFGAVLAGTATTVELPYSPDAAFSFVALADVAEVGARVLVEGPDIHHGATYELGGPEALSVRDLCDRAGGPVSVKQVSVDEWMSRHGRDLTDDGRARLSAMFEFYDRYGFL, MADNINESEIIERLNSAPSVRGFFIATVDVFNESIDGLIQRIFRKDNFAVQSVVGPLLQDSGPLGDLSVRLKLLFGLGVLPDDIYHDIEDIIKLKNHLNSDASDYEFTDPNILEPIKKLHLVKKMGMVQLEVNEPDDDIDLEFYQLQLQRQQQIIKSGLSLAIVEICNELGKDSPF, MSAKGKHVVVIGGGDTGADCITTSVRHGAKSITQFDINREKSNERPDNNPWPLFPIVHTVEDGHKEAAAVYGKDPRAYQVMTTKFVGDAEGHVKEIHTISVETTVHPDGSKTRVEIPGTEKVWPADLVFLAVGFTGPEEQLVRELELETDTRSNIKAEYGKYETSLEGVFAAGDNRRGQSLVVWAIHEGREAARECDKYLMGLEHHHHHH, MSLTDRTIGEAAELLGVTTRTLRHWDSIGLLQPSWRTTTDYRLYTEDDVERALQILIYRAAGIGLKDIAEVLDQPDSANQHLRRQRELLVEQIGQLHRMVRAVDEILGKDAISVKEKIEIFGEDLPKYQEEAFQRWGDTPEWKESQKIQEKMTKEDFQRAKDEHEGFVEKLIDASLRGIAPGSAEGNELALAHRASIGQWYTVSANKQVILARMYVEDERFNETYKGHASYLLTLIEALAQVEGVDLENEGHHHHHH, MGSDKIHHHHHHMIGRKRKYEDPHIRSFHELLSGHNPVLYKKEDLLAYDCDGFTIHKHLPKAVVFPENTREVASIVRYCHDHNLPFLARGAGTGLSGGAIPINGEVIISLVRMKRLLEVDLKNRRAIVEPGYVNLKLTQSIEDKGYYYAPDPSSQYCCTIGGNVAENAGGAHCLKYGVTTNHILGMEVVLPNGDIVEIGKAGILDEPGYDLLGLMTGSEGTLGIVTKITVRILKHPEAKQTVLAYFDKVSDASHTVSDIISEGIVPAALEMMDRIAMEGVEAAAFPIGHLLDAEAVLLIEVDGISAGMDQQIERILTVCRKHHVREVKDEMVGEPKNRLWCHGCHLTRLPRTRWSDPADKASGRAFNDSKNQRNIRATNRKYFSRR, MTDKKPVIVYGVSGYTGRLVCEYLREFNIPFIAAGRDKKRIQEVLDRIPGLDTVDHEVVEVEHTVPALTELFSGARVVSNMVGPFIKHGAIVVEAALAAGCHYTDTTGEQDWVLDVQAKFGEKFAEKGLLLSPGVAQMYTTGEIAANIAL, MSEAESVVIKGGNKDKILPLEAEEKKPIKEEKNKAVILSNWIIKYAPIVYFHPDEKCFPITVEEFLECTDVMNEKNEKFCDGKEILSGSFKDALGNQKFYLKITDTSVREGNLNSAKCYVYVRKRNKGRYLDLQYFFFYGYNGPTINIHLNKNKKNYSTSNIGENYGNWEHVTVVIDSTDGSILGAIFDQHGKSCFYDIDQLEYEKGHIVVYSALSSHASYPSAGKSVTEYDSQELGVPPVSVGIVKFELHDATDKGRRWDTSLVCQLVSYNITGTEVEEPKWMAFNGRWGKPYDLTDKDISILYQISRLPAGGKVVDSLLWRFIPYSKKNINQANGIKSKDDFNIIILEHHHHHH, AKMLGLDFVAVVPRSTSGAKIALIEAQGGRCHFIDRPPEIYSEARRLAAETNGHFMDQFTHAERATDWRGNNNIAESIYHQMIREEHPVPEWLVMSAGTGGTSATLGRYIRYRRHATRLLVVDPENSAFFGGYDSNSCDYATGMPSRIEGIGRPRVEPSFVGQVIDRMMRVPDAASIATARHASSVLGRRVGGSTGTNLWGAFAVVAEMLAAGRSGSVVTILCDGGERYADTYFDDDWVAGEGIDLTGPAAVLDRFA, MGSDKIHHHHHHMIGEKIISFESIDSTNRFLKENYRFYPDGTVVVALEQTSGYGRSGRHWHSPKGGLWFSVLFKPRKPLELSFYTRVFSVAVVKTLENMKIHANIKWPNDVYINGRKLAGVLSEGIFEGAKPLAVVVGVGMNVNNEIPAELKTRAISLKEIMGKEISIVKLMESMLKNARVIFRKYSRKKEALTRIWKRYLLQKEGDLISLEGKKGKIVKINPDSLLIDFDGEIKKVYSLSPH, MGSDKIHHHHHHMTLELIPVGISACLLGNPVRFDGGHKRLTFAVEELAPYFRFESVCPEMAIGLPVPRPALRLVREGESHVTMRASNGSSLDVTQQITVFSADKVSQLQHLCGYIVCAKSPSCGMERVKVYDEAQKNARKSGVGLFTQELMRQMPWLPVEEDGRLHDSGLRENFIERVYALHELNQLWKNGLSRGALIAFHSRYKLLLLAHSQPEYRELGPFVAGIDKWESLEEYVVEYRTRLMKLLSTPATRRNHTNVLMHVQGYFRRQLSSQQRQELAQLIDRYRQGLQPLLAPITLLKHYMAEYPDAYLAQQRYFEPYPEALRLRYGH

Soluble on expression in E. coli, soluble:
GPGSMVLIECKRLPKDEYSKDYDVFLVSMPGSTNIGEATDALQKMRNTRVRIKWMCAAAKQLAKDFCSDEQKHHLLGAVEDAERYMAIERAENRQLCSQEDLDAHIAAFKGSAMILFPAECSGTDAVKRLALVLDDENTTDLERSKAHRLLSIIDDGAATEDILQGPAVMWWSGKPLDRNADFTKYVGKNEKTKITMKLAAKDAPPPPREPAVDAKTQSEMMAFYFKKQEEMKKLIEDEDLTYGNSAWADPRGLRSQLHGFDGVKYKPG, MVIVINYKTYNESIGNRGLEIAKIAEKVSEESGITIGVAPQFVDLRMIVENVNIPVYAQHIDNINPGSHTGHILAEAIKDCGCKGTLINHSEKRMLLADIEAVINKCKNLGLETIVCTNNINTSKAVAALSPDCIAVEPPELIGTGIPVSKANPEVVEGTVRAVKEINKDVKVLCGAGISKGEDVKAALDLGAEGVLLASGVVKAKNVEEAIRELIKFI, MGASRMTEIIDISLDITEDTVVMPENPEFDKERLASIGKEGYELYKICMSNHIGTHIDAPAHFVSEGALINQLDLDTLMGKALVVEIKDEHKISVDELKRVNLKDNIRLLFKTRNSELIAENKLTKDFVYIEEQAAGHLVKNGVKLIGLDYFTIDRIEDQDKPAHKEFAGNGVVVIEGVNLLNVEPGEYELVALPIKINADGAPARVILRRLEHHHHHH, MHNFIYITAPSLEEAERIAKRLLEKKLAACVNIFPIKSFFWWEGKIEAATEFAMIVKTRSEKFAEVRDEVKAMHSYTTPCICAIPIERGLKEFLDWIDETVE, ELVMTQTPSSVSEPVGGTVTIKCQASQSISSWLSWYQQKPGQPPKLLIYDASNLASGVPSRFMGSGSGTEYTLTISGVQREDAATYYCLGGYPAASYRTAFGGGTELEIIRTVAAPSVFIFPPSDEQLKSGTASVVCLLNNFYPREAKVQWKVDNALQSGNSQESVTEQDSKDSTYSLSSTLTLSKADYEKHKVYACEVTHQGLSSPVTKSFNRGEC, LGNEDFNSVIQQMAQGRQIEYIDIERPSTGGLGFSVVALRSQNLGKVDIFVKDVQPGSVADRDQRLKENDQILAINHTPLDQNISHQQAIALLQQTTGSLRLIVAREPVHTKSST, MTTSGHACPVPAVNGHMTHYPATPYPLLFPPVIGGLSLPPLHGLHGHPPPSGCSTPSPATIETQSTSSEELVPSPPSPLPPPRVYKPCFVCQDKSSGYHYGVSACEGCKGFFRRSIQKNMIYTCHRDKNCVINKVTRNRCQYCRLQKCFEVGMSKESVRNDRNKKKKETSKQECTESYEMTAELDDLTEKIRKAHQETFPSLCQLGKYTTNSSADHRVRLDLGLWDKFSELATKCIIKIVEFAKRLPGFTGLTIADQITLLKAACLDILILRICTRYTPEQDTMTFSDGLTLNRTQMHNAGFGPLTDLVFTFANQLLPLEMDDTETGLLSAICLICGDRQDLEEPTKVDKLQEPLLEALKIYIRKRRPSKPHMFPKILMKITDLRSISAKGAERVITLKMEIPGSMPPLIQEMLENSEGHEPLTPSSSGNTAEHSPSISPSSVENSGVSQSPLVQ, MQLFDLSLEELKKYKPKKTARPDFSDFWKKSLEELRQVEAEPTLESYDYPVKGVKVYRLTYQSFGHSKIEGFYAVPDQTGPHPALVRFHGYNASYDGGIHDIVNWALHGYATFGMLVRGQGGSEDTSVTPGGHALGWMTKGILSKDTYYYRGVYLDAVRALEVIQSFPEVDEHRIGVIGGAQGGALAIAAAALSDIPKVVVADYPYLSNFERAVDVALEQPYLEINSYFRRNSDPKVEEKAFETLSYFDLINLAGWVKQPTLMAIGLIDKITPPSTVFAAYNHLETDKDLKVYRYFGHEFIPAFQTEKLSFLQKHLLLST, MSAPFEERSGVVPCGTPWGQWYQTLEEVFIEVQVPPGTRAQDIQCGLQSRHVALAVGGREILKGKLFDSTIADEGTWTLEDRKMVRIVLTKTKRDAANCWTSLLESEYAADPWVQDQMQRKLTLERFQKENPGFDFSGAEISGNYTKGGPDFSNLEK, GMTISRNYDQEIKDTAGHKYAYNFDFDVMHPFMVRAFTPFFRPGNLLELGSFKGDFTSRLQEHFNDITCVEASEEAISHAQGRLKDGITYIHSRFEDAQLPRRYDNIVLTHVLEHIDDPVALLKRINDDWLAEGGRLFLVCPNANAVSRQIAVKMGIISHNSAVTEAEFAHGHRCTYALDTLERDASRAGLQVTYRSGIFFKALANFQWDQILQTDILSKEYLDGCYQLGQQYPDLCASIFLLCEKGINQ, MSLIMTTFIQLHLLTAYAPANLNRDESGRPKTAFMGGVERLRVSSQSLKRAWRVSETFEAAMDGFMGKRTRRIGVDYVYRPMKDAGIEEKIAKSSSELIAKQFGKLKSDKDAKPEKNLEIEQIVHVSNHEISLIKQLVDTLIADKREPNDEEVKLLRKEQRSVDMALFDRMLASSPEFNVEAACQVSHALGVSAVTVESDFFTAVDDLNNKEEDAGSGHMGEQGFASALFYTYVCISRDLLVENLGGNEELAKRTIAALTETALTVSPTGKQNSFASRAYATYALAEVGQKQPRSLAAAFFQPVRDTDQIPAAITRLKQQRASFDSVYGNCADDYRELNVQEGTGSLAELLAFVSQEGHHHHHH, SLTKPIGEKADPERLAAFLNEKGGNALSHLGFLGDKRFYFSSDGNALLLFGKIARRLVVLGDPSGQRESFPLVLEEFLNEAHQKGFSVLFYQIEREDMALYHDFGYNFFKLGEEAYVDLNTFTLTGKKKAGLRAINNRFEREEYTFHVDHPPFSDAFLEELKQISDEWLGSKKEKGFSLGFFDPSYLQKAPIAYMKNAEGEIVAFANVMPMYQEGEISVDLMRYRGDAPNGIMDALFIRMFLWAKEEGCTSFNMGMAPLANVGTAFTSFWSERFAAVIFNNVRYMYSFSGLRAFKEKYKPEWRGKYLAYRKNRSLSVTMFLVTRLIGKSKKDSV, MSLAAPVHAAPLAATASKFLGCAYGAQQAPGFAQYWNKLTPENGGKWGSVEAVRDQMDWSTLDAAYRFAQANQMPFQMHVMVWGNQQPEWIKTLRPAEQRREIEQWFAAVAQRYPDIALLEVVNEPLNDPPSKADTGGGNYLQALGGNGDSGWEWVLQSFRLARRHFPHTKLMINDYSITSSAQATQKYLQIVRLLQRENLVDAIGVQEHAFETTPEVAVSVHRDNLDALAATGLPIYITEFDLDGPTDAQQLADYKRVFPVFWEHPAVHGITLWGFRPGLWRDKEAAYLIRADGTERPALTWLRDYVAAHPGTEGHHHHHH
